Source: publication PMC3317874, “Palmitoylation and membrane cholesterol stabilize μ-opioid receptor homodimerization and G protein coupling” (BMC Cell Biology, 2012)
Changes are numbered by the printed parent chain. Names may count otherwise. Blank lines part the entries; values can stand above or below the binder they belong to.

How the values were obtained:
Experiment in all cases: FRET or BRET; CFP and YFP constructs transiently transfected into HEK cells; normalized net FRET analysed on the cell membrane; also after 12 h of 0.5 μM simvastatin, simvastatin with 20 ng/ml cholesterol, or 50 μM 2-BP
[1] = target: T1, YFP-fused wild-type μ-opioid receptor (OPRM1) (rat), P33535; conditions: remark: other sources report otherwise
T1 chain: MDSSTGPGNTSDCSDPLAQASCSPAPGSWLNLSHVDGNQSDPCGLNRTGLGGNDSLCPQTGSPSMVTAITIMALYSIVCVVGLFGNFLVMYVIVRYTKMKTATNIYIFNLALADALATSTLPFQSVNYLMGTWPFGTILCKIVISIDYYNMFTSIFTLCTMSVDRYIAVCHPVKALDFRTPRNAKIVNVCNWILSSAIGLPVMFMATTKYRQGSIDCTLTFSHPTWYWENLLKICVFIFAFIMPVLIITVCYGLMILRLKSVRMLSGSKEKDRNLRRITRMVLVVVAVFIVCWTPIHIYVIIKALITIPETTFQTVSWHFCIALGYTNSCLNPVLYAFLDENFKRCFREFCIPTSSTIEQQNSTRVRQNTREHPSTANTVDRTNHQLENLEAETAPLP

[2] = target: T2, YFP-fused C170A mutant of μ-opioid receptor (OPRM1) (rat, UniProt P33535 1-398, C170A); conditions: partners not purified
T2 construct: μ-opioid receptor (OPRM1) with C3.55(170) mutated to alanine; also called YFPC170A; source: HEK cells, transiently transfected, in cells; not shown: YFP, C-terminal, kept

[3] = target: T3, YFP-fused wild-type μ-opioid receptor (OPRM1) (rat, UniProt P33535 1-398, palmitoylated at C3.55(170)); conditions: partners not purified
T3 construct: μ-opioid receptor (OPRM1), wild type; also called YFPOPRM1; source: HEK cells, transiently transfected, in cells; not shown: YFP, C-terminal, kept

normalized net FRET [1]: 0.49
B1: CFP-fused wild-type μ-opioid receptor (OPRM1), P33535 1-398 (receptor)
chain: T1 chain
modifications: here or on the partner: palmitoylated at C3.55(170); palmitoylated at C3.55(170)

normalized net FRET [2]: 0.3
B2: CFP-fused wild-type μ-opioid receptor (OPRM1) (receptor, rat, UniProt P33535 1-398, looked up)
chain: T1 chain
modifications: palmitoylated at C3.55(170)
notes: μ-opioid receptor (OPRM1), wild type; also called CFPOPRM1; source: HEK cells (also HEKOPRM1 and HEKC170A cells), transiently transfected, in living or fixed cells; not shown: CFP, C-terminal, kept

normalized net FRET [3]: 0.27
normalized net FRET [2]: 0.07
B3: CFP-fused C170A mutant of μ-opioid receptor (OPRM1) (receptor, rat, UniProt P33535 1-398, looked up)
chain: T1 chain with C170A
notes: μ-opioid receptor (OPRM1) with C3.55(170) mutated to alanine; also called CFPC170A; source: HEK cells (also HEKOPRM1 and HEKC170A cells), transiently transfected, in cells; not shown: CFP, C-terminal, kept
